The test concerns the target neurogenic locus notch homolog protein 1 (NOTCH1) (UniProt P46531 19-2555, limits assumed). Briefly: large-scale immunoaffinity purification and LC-MS analysis.

Sequence of neurogenic locus notch homolog protein 1 (NOTCH1) (P46531 19-2555 limits assumed): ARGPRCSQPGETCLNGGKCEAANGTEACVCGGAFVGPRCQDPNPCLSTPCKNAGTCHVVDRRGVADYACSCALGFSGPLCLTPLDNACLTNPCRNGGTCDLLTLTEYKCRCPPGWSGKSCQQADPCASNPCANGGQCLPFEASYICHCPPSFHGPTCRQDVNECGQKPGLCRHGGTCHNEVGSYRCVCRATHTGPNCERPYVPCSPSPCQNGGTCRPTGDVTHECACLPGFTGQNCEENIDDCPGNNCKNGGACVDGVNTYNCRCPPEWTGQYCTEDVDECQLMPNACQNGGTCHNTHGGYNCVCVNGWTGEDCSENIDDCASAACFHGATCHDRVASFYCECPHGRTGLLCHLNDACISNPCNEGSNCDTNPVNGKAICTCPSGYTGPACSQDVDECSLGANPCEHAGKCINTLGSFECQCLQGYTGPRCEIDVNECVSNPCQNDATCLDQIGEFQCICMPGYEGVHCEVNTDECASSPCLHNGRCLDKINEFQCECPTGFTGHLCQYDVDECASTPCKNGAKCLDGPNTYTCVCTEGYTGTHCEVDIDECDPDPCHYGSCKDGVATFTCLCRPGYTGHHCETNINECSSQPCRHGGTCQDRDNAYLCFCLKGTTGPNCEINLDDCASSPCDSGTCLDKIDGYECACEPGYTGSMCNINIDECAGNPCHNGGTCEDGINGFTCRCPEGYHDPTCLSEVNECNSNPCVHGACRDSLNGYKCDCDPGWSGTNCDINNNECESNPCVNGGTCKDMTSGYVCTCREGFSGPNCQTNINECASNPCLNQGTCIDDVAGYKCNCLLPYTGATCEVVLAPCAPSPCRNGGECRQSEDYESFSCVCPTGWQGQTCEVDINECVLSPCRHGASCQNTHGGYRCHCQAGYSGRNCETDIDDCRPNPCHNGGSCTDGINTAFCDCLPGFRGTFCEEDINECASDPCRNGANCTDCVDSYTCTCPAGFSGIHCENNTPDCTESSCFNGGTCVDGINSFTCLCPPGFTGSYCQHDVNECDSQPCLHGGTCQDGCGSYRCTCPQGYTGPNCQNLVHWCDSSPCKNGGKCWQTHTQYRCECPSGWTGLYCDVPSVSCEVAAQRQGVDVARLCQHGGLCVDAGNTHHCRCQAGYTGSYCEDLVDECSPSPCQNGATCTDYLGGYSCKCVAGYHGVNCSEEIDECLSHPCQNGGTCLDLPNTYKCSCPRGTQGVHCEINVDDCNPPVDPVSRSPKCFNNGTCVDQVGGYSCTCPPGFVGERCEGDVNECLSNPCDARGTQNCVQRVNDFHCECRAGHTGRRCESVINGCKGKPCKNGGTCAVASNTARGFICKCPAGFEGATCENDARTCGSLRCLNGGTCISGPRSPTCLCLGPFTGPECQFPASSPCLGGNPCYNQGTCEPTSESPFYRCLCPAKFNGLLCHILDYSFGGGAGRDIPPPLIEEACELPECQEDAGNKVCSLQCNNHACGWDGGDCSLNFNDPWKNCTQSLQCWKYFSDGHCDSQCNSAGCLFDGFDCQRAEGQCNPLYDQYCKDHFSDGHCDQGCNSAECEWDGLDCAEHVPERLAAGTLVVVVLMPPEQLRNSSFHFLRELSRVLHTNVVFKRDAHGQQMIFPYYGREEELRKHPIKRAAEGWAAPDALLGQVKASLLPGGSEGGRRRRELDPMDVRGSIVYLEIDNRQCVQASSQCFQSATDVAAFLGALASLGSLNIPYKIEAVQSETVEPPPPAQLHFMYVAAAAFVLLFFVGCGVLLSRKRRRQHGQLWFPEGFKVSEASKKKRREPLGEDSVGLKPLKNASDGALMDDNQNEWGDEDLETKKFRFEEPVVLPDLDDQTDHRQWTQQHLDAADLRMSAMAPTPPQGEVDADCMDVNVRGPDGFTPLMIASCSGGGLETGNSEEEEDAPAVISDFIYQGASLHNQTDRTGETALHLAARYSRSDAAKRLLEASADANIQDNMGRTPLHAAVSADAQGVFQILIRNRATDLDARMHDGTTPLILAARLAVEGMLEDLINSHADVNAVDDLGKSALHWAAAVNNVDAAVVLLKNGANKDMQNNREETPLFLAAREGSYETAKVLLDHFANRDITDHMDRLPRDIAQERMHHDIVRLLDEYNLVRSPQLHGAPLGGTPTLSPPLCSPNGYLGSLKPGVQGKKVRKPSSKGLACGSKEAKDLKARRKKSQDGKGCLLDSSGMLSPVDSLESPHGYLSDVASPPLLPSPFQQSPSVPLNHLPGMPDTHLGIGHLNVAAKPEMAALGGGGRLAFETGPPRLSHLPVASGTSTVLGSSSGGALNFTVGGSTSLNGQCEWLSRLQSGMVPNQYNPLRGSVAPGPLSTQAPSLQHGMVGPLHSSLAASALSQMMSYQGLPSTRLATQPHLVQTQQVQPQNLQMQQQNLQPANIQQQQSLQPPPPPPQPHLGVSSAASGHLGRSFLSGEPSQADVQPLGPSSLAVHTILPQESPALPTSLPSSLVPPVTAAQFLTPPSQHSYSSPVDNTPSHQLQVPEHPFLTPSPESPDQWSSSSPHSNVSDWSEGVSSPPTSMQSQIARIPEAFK

B1: Tre2-Bub2-Cdc16 domain family member 15 (TBC1D15) (other, UniProt Q8TC07 1-691, looked up)
chain: MAAAGVVSGKIIYEQEGVYIHSSCGKTNDQDGLISGILRVLEKDAEVIVDWRPLDDALDSSSILYARKDSSSVVEWTQAPKERGHRGSEHLNSYEAEWDMVNTVSFKRKPHTNGDAPSHRNGKSKWSFLFSLTDLKSIKQNKEGMGWSYLVFCLKDDVVLPALHFHQGDSKLLIESLEKYVVLCESPQDKRTLLVNCQNKSLSQSFENLLDEPAYGLIQAGLLDRRKLLWAIHHWKKIKKDPYTATMIGFSKVTNYIFDSLRGSDPSTHQRPPSEMADFLSDAIPGLKINQQEEPGFEVITRIDLGERPVVQRREPVSLEEWTKNIDSEGRILNVDNMKQMIFRGGLSHALRKQAWKFLLGYFPWDSTKEERTQLQKQKTDEYFRMKLQWKSISQEQEKRNSRLRDYRSLIEKDVNRTDRTNKFYEGQDNPGLILLHDILMTYCMYDFDLGYVQGMSDLLSPLLYVMENEVDAFWCFASYMDQMHQNFEEQMQGMKTQLIQLSTLLRLLDSGFCSYLESQDSGYLYFCFRWLLIRFKREFSFLDILRLWEVMWTELPCTNFHLLLCCAILESEKQQIMEKHYGFNEILKHINELSMKIDVEDILCKAEAISLQMVKCKELPQAVCEILGLQGSEVTTPDSDVGEDENVVMTPCPTSAFQSNALPTLSASGARNDSPTQIPVSSDVCRLTPA
notes: TBC1D15 as present in cell lysates (co-IP); also called TBC1 domain family member 15
As for B1, the binding result is recorded as “binds”.
